Fewer inactive variants are shown than the library holds.

For one series, the system named is biotinyl-Phe-oxazolone. In words: self-aminoacylation, catalytic enhancement (BFO) (fold over background); higher = more active; k-Seq, kA / k0A0; sequences stand for … in GGGAAUGGAUCCACAUCUACGAAUUC…UUCACUGCAGACUUGACGAAGCUG
A digest of the protocol:
(§1)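 Working in 50 μL HEPES/NaCl/KCl/MgCl2/CaCl2 buffer with 5% acetonitrile at pH 6.9–7.0, mutagenized RNA pools (0.43 μM; 21-nt variable region) were reacted with 2–1250 μM of each biotinyl-aminoacyl-oxazolone for 90 minutes at room temperature. Streptavidin capture followed, with quantification by triplicate qPCR and Illumina sequencing. Catalytic enhancement is reported as median kA over the uncatalyzed rate, the low-activity peak of a bimodal Gaussian fit to the data.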

Another series deals with biotinyl-Ile-oxazolone. Briefly: self-aminoacylation, catalytic enhancement (BIO) (fold over background); higher = more active; k-Seq, kA / k0A0; sequences stand for … in GGGAAUGGAUCCACAUCUACGAAUUC…UUCACUGCAGACUUGACGAAGCUG
A digest of the protocol: as §1

The next series concerns biotinyl-Met-oxazolone. In words: self-aminoacylation, catalytic enhancement (BMO) (fold over background); higher = more active; k-Seq, kA / k0A0; sequences stand for … in GGGAAUGGAUCCACAUCUACGAAUUC…UUCACUGCAGACUUGACGAAGCUG
A digest of the protocol: as §1

Another series has as its system biotinyl-Val-oxazolone. In words: self-aminoacylation, catalytic enhancement (BVO) (fold over background); higher = more active; k-Seq, kA / k0A0; sequences stand for … in GGGAAUGGAUCCACAUCUACGAAUUC…UUCACUGCAGACUUGACGAAGCUG
In short, it runs like this:
as §1

The test system of the next series is biotinyl-Leu-oxazolone. Briefly: self-aminoacylation, catalytic enhancement (BLO) (fold over background); higher = more active; k-Seq, kA / k0A0; sequences stand for … in GGGAAUGGAUCCACAUCUACGAAUUC…UUCACUGCAGACUUGACGAAGCUG
In short, it runs like this: as §1

The next series has as its system biotinyl-Trp-oxazolone. Briefly: self-aminoacylation, catalytic enhancement (BWO) (fold over background); higher = more active; k-Seq, kA / k0A0; sequences stand for … in GGGAAUGGAUCCACAUCUACGAAUUC…UUCACUGCAGACUUGACGAAGCUG
In short, it runs like this: as §1

In the case of “CCACUCUUCAAGCAAUCGUUC [Fam1B.1 aminoacylation ribozyme variant]”, the self-aminoacylation was found to be 1.06 in the series on biotinyl-Phe-oxazolone; 0.87 in the series on biotinyl-Ile-oxazolone; 0.915 with biotinyl-Met-oxazolone; 0.857 in the series with biotinyl-Val-oxazolone; 0.724 with biotinyl-Leu-oxazolone; 0.68 with biotinyl-Trp-oxazolone.

In the case of “CCACUUCAAACAAUCGGUCUG [Fam1A.1 aminoacylation ribozyme variant]”, the self-aminoacylation in the series with biotinyl-Phe-oxazolone was 114; in the series on biotinyl-Ile-oxazolone it was 1.51; with biotinyl-Met-oxazolone it was 1.76; in the series with biotinyl-Val-oxazolone, 1.63; in the series on biotinyl-Leu-oxazolone, 2.75; in the series with biotinyl-Trp-oxazolone, 49.3.

As to “CCACUUCAAACAAUCUGUCUG [Fam1A.1 aminoacylation ribozyme variant]”, the self-aminoacylation in the series on biotinyl-Phe-oxazolone is 2.99; in the series with biotinyl-Ile-oxazolone, 0.723; with biotinyl-Met-oxazolone, 0.511; with biotinyl-Val-oxazolone it was 0.641; in the series with biotinyl-Leu-oxazolone it was 0.642; with biotinyl-Trp-oxazolone, 1.78.

As for “CCACUUCAAACAGUCGGUCUG [Fam1A.1 aminoacylation ribozyme variant]”, the self-aminoacylation in the series with biotinyl-Phe-oxazolone was 0.637; with biotinyl-Ile-oxazolone, 1.19; in the series on biotinyl-Met-oxazolone it was 1.09; with biotinyl-Val-oxazolone, 1.39; in the series on biotinyl-Leu-oxazolone, 0.89; with biotinyl-Trp-oxazolone, 1.54.

Turning to “CCACUUCAAGCAAUCGGUCUG [Fam1A.1 aminoacylation ribozyme variant]”, the self-aminoacylation in the series with biotinyl-Phe-oxazolone amounted to 18.6; in the series with biotinyl-Ile-oxazolone, 1.23; with biotinyl-Met-oxazolone, 1.15; with biotinyl-Val-oxazolone it was 1.28; in the series on biotinyl-Leu-oxazolone it was 1.22; in the series with biotinyl-Trp-oxazolone, 11.8.

With “CCACUUGAAACAAUCGGUCUG [Fam1A.1 aminoacylation ribozyme variant]”, the self-aminoacylation stood at 0.824 in the series with biotinyl-Phe-oxazolone; 1.15 in the series with biotinyl-Ile-oxazolone; 1.19 with biotinyl-Met-oxazolone; 1.18 in the series with biotinyl-Val-oxazolone; 1.03 in the series on biotinyl-Leu-oxazolone; 0.785 in the series with biotinyl-Trp-oxazolone.

In the case of “CCAGACUACAAGCAAUCGGUC [Fam1B.1 aminoacylation ribozyme variant]”, the self-aminoacylation is 1.07 in the series on biotinyl-Phe-oxazolone; 1.26 in the series on biotinyl-Ile-oxazolone; 1.16 in the series on biotinyl-Met-oxazolone; 1.42 with biotinyl-Val-oxazolone; 1.17 in the series with biotinyl-Leu-oxazolone; 1.35 in the series on biotinyl-Trp-oxazolone.

As to “CCAGACUUCAAGCAAGCGGUC [Fam1B.1 aminoacylation ribozyme variant]”, the self-aminoacylation in the series with biotinyl-Phe-oxazolone was 0.523; in the series on biotinyl-Ile-oxazolone, 0.87; in the series on biotinyl-Met-oxazolone it was 0.821; in the series on biotinyl-Val-oxazolone it was 0.932; in the series on biotinyl-Leu-oxazolone it was 1.15; with biotinyl-Trp-oxazolone, 0.843.

Turning to “CCAGACUUCAAGCAAUCGCUC [Fam1B.1 aminoacylation ribozyme variant]”, the self-aminoacylation in the series with biotinyl-Phe-oxazolone is 5.36; with biotinyl-Ile-oxazolone it was 2.23; in the series with biotinyl-Met-oxazolone, 2.06; with biotinyl-Val-oxazolone, 2.11; in the series on biotinyl-Leu-oxazolone it was 2.71; with biotinyl-Trp-oxazolone, 1.54.

Regarding “CCAGACUUCAAGCAAUGGGUC [Fam1B.1 aminoacylation ribozyme variant]”, the self-aminoacylation in the series on biotinyl-Phe-oxazolone stood at 0.887; with biotinyl-Ile-oxazolone, 0.856; in the series with biotinyl-Met-oxazolone, 0.72; with biotinyl-Val-oxazolone, 0.856; in the series on biotinyl-Leu-oxazolone it was 0.759; in the series on biotinyl-Trp-oxazolone, 0.74.

For the sequence “CCAGACUUCAAGCUAUCGGUC [Fam1B.1 aminoacylation ribozyme variant]”, the self-aminoacylation in the series on biotinyl-Phe-oxazolone was 1.11; in the series with biotinyl-Ile-oxazolone, 1.41; with biotinyl-Met-oxazolone it was 1.08; with biotinyl-Val-oxazolone it was 1.41; with biotinyl-Leu-oxazolone, 1.16; with biotinyl-Trp-oxazolone, 0.76.

For “CCAGACUUCACGCAAUCGGUC [Fam1B.1 aminoacylation ribozyme variant]”, the self-aminoacylation in the series on biotinyl-Phe-oxazolone worked out at 4.39; with biotinyl-Ile-oxazolone, 1.64; in the series with biotinyl-Met-oxazolone, 1.79; with biotinyl-Val-oxazolone it was 1.76; with biotinyl-Leu-oxazolone, 1.6; in the series with biotinyl-Trp-oxazolone it was 1.65.

As to “CCAGACUUGAAGCAAUCGGUC [Fam1B.1 aminoacylation ribozyme variant]”, the self-aminoacylation in the series with biotinyl-Phe-oxazolone was determined as 0.942; with biotinyl-Ile-oxazolone, 1.07; in the series on biotinyl-Met-oxazolone, 1.08; with biotinyl-Val-oxazolone, 1.12; in the series with biotinyl-Leu-oxazolone, 1.16; in the series on biotinyl-Trp-oxazolone, 1.07.

With “CCAUACGUCAAGCAAUCGGUC [Fam1B.1 aminoacylation ribozyme variant]”, the self-aminoacylation in the series on biotinyl-Phe-oxazolone amounted to 0.88; with biotinyl-Ile-oxazolone, 1.04; in the series with biotinyl-Met-oxazolone, 1.03; with biotinyl-Val-oxazolone, 1.12; with biotinyl-Leu-oxazolone, 1.34; in the series with biotinyl-Trp-oxazolone, 1.16.

In the case of “CCAUACUUCAAGCAACCGGUC [Fam1B.1 aminoacylation ribozyme variant]”, the self-aminoacylation with biotinyl-Phe-oxazolone amounted to 1.06; in the series with biotinyl-Ile-oxazolone it was 1.06; with biotinyl-Met-oxazolone, 0.74; with biotinyl-Val-oxazolone, 1; in the series with biotinyl-Leu-oxazolone it was 0.894; with biotinyl-Trp-oxazolone, 0.794.

On to “CCAUACUUCAAGCAAUCAGUC [Fam1B.1 aminoacylation ribozyme variant]”, for which the self-aminoacylation stood at 7.22 in the series on biotinyl-Phe-oxazolone; 0.884 in the series on biotinyl-Ile-oxazolone; 0.659 with biotinyl-Met-oxazolone; 0.81 in the series with biotinyl-Val-oxazolone; 0.804 in the series with biotinyl-Leu-oxazolone; 2.64 in the series with biotinyl-Trp-oxazolone.

“CCAUACUUCAAGCAAUCUGUC [Fam1B.1 aminoacylation ribozyme variant]”: the self-aminoacylation with biotinyl-Phe-oxazolone is 0.503; in the series with biotinyl-Ile-oxazolone, 0.536; with biotinyl-Met-oxazolone it was 0.439; with biotinyl-Val-oxazolone it was 0.555; in the series on biotinyl-Leu-oxazolone, 0.384; in the series with biotinyl-Trp-oxazolone it was 0.251.

Take “CCAUCCUUCAAGCAAUCGGUC [Fam1B.1 aminoacylation ribozyme variant]”: the self-aminoacylation in the series with biotinyl-Phe-oxazolone was 16.4; in the series with biotinyl-Ile-oxazolone, 1.13; in the series with biotinyl-Met-oxazolone it was 1.15; in the series on biotinyl-Val-oxazolone, 1.19; with biotinyl-Leu-oxazolone, 1.3; in the series on biotinyl-Trp-oxazolone, 9.38.

For “CCCCACAUCAAGCAAUCGGUC [Fam1B.1 aminoacylation ribozyme variant]”, the self-aminoacylation in the series on biotinyl-Phe-oxazolone was determined as 3.1; in the series with biotinyl-Ile-oxazolone it was 1.67; with biotinyl-Met-oxazolone it was 1.22; with biotinyl-Val-oxazolone, 1.5; in the series on biotinyl-Leu-oxazolone it was 1.63; in the series with biotinyl-Trp-oxazolone it was 2.47.

With “CCCCACUUCAAGAAAUCGGUC [Fam1B.1 aminoacylation ribozyme variant]”, the self-aminoacylation in the series with biotinyl-Phe-oxazolone is 11.6; in the series on biotinyl-Ile-oxazolone, 1.36; in the series on biotinyl-Met-oxazolone, 1.17; with biotinyl-Val-oxazolone, 1.42; in the series with biotinyl-Leu-oxazolone it was 1.81; in the series on biotinyl-Trp-oxazolone, 9.76.

Turning to “CCCCACUUCAAGCAAACGGUC [Fam1B.1 aminoacylation ribozyme variant]”, the self-aminoacylation was 2.34 with biotinyl-Phe-oxazolone; 1.33 with biotinyl-Ile-oxazolone; 1.36 in the series with biotinyl-Met-oxazolone; 1.41 in the series with biotinyl-Val-oxazolone; 1.03 with biotinyl-Leu-oxazolone; 1.67 in the series with biotinyl-Trp-oxazolone.

In the case of “CCCCACUUCAAGCAACCGGUC [Fam1B.1 aminoacylation ribozyme variant]”, the self-aminoacylation worked out at 3.09 with biotinyl-Phe-oxazolone; 1.99 in the series on biotinyl-Ile-oxazolone; 1.82 in the series with biotinyl-Met-oxazolone; 2.15 with biotinyl-Val-oxazolone; 2.05 in the series with biotinyl-Leu-oxazolone; 2.18 in the series on biotinyl-Trp-oxazolone.

As to “CCCCACUUCAAGCAAGCGGUC [Fam1B.1 aminoacylation ribozyme variant]”, the self-aminoacylation in the series on biotinyl-Phe-oxazolone is 9.34; with biotinyl-Ile-oxazolone, 2.15; in the series with biotinyl-Met-oxazolone, 2.33; with biotinyl-Val-oxazolone, 2.38; with biotinyl-Leu-oxazolone, 2.61; in the series with biotinyl-Trp-oxazolone it was 5.

For the sequence “CCCCACUUCAAGCAAUCAGUC [Fam1B.1 aminoacylation ribozyme variant]”, the self-aminoacylation with biotinyl-Phe-oxazolone was 19.8; in the series on biotinyl-Ile-oxazolone, 0.981; with biotinyl-Met-oxazolone, 0.987; in the series with biotinyl-Val-oxazolone, 1.14; in the series with biotinyl-Leu-oxazolone, 1.13; in the series on biotinyl-Trp-oxazolone it was 6.51.

“CCCCACUUCAAGCAAUCGCUC [Fam1B.1 aminoacylation ribozyme variant]”: the self-aminoacylation turned out to be 8.76 in the series on biotinyl-Phe-oxazolone; 2.08 with biotinyl-Ile-oxazolone; 2.93 in the series with biotinyl-Met-oxazolone; 2.55 in the series with biotinyl-Val-oxazolone; 2.99 in the series with biotinyl-Leu-oxazolone; 4.28 in the series on biotinyl-Trp-oxazolone.

For the origin of these results see the supplement of paper PMC9233669.
